Laboratory results from patent publication US20200024322A1 (Eli Lilly, published 2020).
Where a chain is given by its changes, count along the chain named. Numbered stars: 1 amine (or outer) side, 2 acyl side, 3 side chain; on linkers, the order of the positions; unused ones are H or OH. Square brackets hold non-standard residues; d marks the D form. Side chains are listed from the residue outwards. Ends that are not written are not given here. * marks the point of attachment. C18 diacid = O=C(O)CCCCCCCCCCCCCCCCC(=O)*; αMePhe(2-F) = C[C@](N)(Cc1ccccc1F)C(=O)O; γGlu = O=C(O)[C@H](CCC(=O)[*:2])N[*:1]; αMeL = CC(C)C[C@](C)(N)C(=O)O; AEEA = NCCOCCOCC(=O)O; Aib = CC(C)(N)C(=O)O

T1: human gastric inhibitory peptide receptor (GIPR) (human, UniProt P48546 22-466)
T1 sequence (looked up): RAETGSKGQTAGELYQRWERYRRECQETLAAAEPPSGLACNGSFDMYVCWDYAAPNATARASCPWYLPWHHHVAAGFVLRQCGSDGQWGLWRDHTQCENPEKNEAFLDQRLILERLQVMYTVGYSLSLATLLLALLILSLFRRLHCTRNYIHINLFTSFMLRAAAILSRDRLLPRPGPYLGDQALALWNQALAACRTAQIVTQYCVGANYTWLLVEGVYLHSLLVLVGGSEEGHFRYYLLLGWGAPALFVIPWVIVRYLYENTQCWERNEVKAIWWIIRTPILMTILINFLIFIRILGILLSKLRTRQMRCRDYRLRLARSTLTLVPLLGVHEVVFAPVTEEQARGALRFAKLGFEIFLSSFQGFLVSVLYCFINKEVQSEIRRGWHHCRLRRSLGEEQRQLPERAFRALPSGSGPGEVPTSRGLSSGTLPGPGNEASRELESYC

T2: human GLP-1 receptor (GLP-1R) (human), P43220
T2 chain: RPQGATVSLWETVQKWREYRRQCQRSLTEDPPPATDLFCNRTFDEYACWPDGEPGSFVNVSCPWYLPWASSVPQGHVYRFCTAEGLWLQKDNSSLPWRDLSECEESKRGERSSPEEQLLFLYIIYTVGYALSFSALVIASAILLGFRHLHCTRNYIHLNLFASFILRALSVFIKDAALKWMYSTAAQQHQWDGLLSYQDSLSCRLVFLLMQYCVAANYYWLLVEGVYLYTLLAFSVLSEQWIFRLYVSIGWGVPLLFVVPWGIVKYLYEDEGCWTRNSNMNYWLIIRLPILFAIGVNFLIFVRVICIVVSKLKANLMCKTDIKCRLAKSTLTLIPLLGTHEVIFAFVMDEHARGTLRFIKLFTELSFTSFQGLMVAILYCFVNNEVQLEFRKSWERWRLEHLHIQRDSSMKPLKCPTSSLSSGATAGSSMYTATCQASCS

T3: human gastric inhibitory peptide receptor (GIPR) (human), P48546
T3 chain: T1 sequence (looked up)

B1: (D-Tyr)-Aib-EGTFTSDYSI-αMeL-LD-Orn-K((2-[2-(2-Amino-ethoxy)-ethoxy]-acetyl)2-(γ-Glu)-CO-(CH2)16-CO2H)AQ-Aib-EFIE-αMeY-LIAGGPSSGAPPPS-NH2 (peptide)
peptide: XXEGTFTSDYSIXLDXKAQXEFIEXLIAGGPSSGAPPPS
modifications: D-Tyr1; Aib2; αMeL13; Orn16; K17 conjugated to (2-[2-(2-Amino-ethoxy)-ethoxy]-acetyl)2-(γ-Glu)-CO-(CH2)16-CO2H; Aib20; αMeY25; C-terminal amide (NH2)
B2: (D-Tyr)-Aib-EGTFTSDYSI-αMeL-LDKK((2-[2-(2-Amino-ethoxy)-ethoxy]-acetyl)-(γ-Glu)-CO-(CH2)18-CO2H)AQ-Aib-EFIEYLIAGGPSSGAPPPS-NH2 (peptide)
peptide: B1 peptide with X16K, X25Y
modifications: D-Tyr1; Aib2; αMeL13; K17 conjugated to (2-[2-(2-Amino-ethoxy)-ethoxy]-acetyl)-(γ-Glu)-CO-(CH2)18-CO2H; Aib20; C-terminal amide (NH2)
B3: (D-Tyr)-Aib-EGTFTSDYSI-αMeL-LDKK((2-[2-(2-Amino-ethoxy)-ethoxy]-acetyl)2-(γ-Glu)-CO-(CH2)16-CO2H)AQ-Aib-AFIE-αMeY-LIAGGPSSGAPPPS-NH2 (peptide)
peptide: B1 peptide with X16K, E21A
modifications: D-Tyr1; Aib2; αMeL13; K17 conjugated to (2-[2-(2-Amino-ethoxy)-ethoxy]-acetyl)2-(γ-Glu)-CO-(CH2)16-CO2H; Aib20; αMeY25; C-terminal amide (NH2)
B4: (D-Tyr)-Aib-EGTFTSDYSI-αMeL-LDKK((2-[2-(2-Amino-ethoxy)-ethoxy]-acetyl)2-(γ-Glu)-CO-(CH2)18-CO2H)AQ-Aib-EFIE-αMeY-LIEGGPSSGAPPPS-NH2 (peptide)
peptide: B1 peptide with X16K, A28E
modifications: D-Tyr1; Aib2; αMeL13; K17 conjugated to (2-[2-(2-Amino-ethoxy)-ethoxy]-acetyl)2-(γ-Glu)-CO-(CH2)18-CO2H; Aib20; αMeY25; C-terminal amide (NH2)
B5: (D-Tyr)-Aib-EGTFTSDYSI-αMeL-LD-Orn-K((2-[2-(2-Amino-ethoxy)-ethoxy]-acetyl)2-(γ-Glu)-CO-(CH2)18-CO2H)AQ-Aib-EFIE-αMeY-LIEGGPSSGAPPPS-NH2 (peptide)
peptide: B1 peptide with A28E
modifications: D-Tyr1; Aib2; αMeL13; Orn16; K17 conjugated to (2-[2-(2-Amino-ethoxy)-ethoxy]-acetyl)2-(γ-Glu)-CO-(CH2)18-CO2H; Aib20; αMeY25; C-terminal amide (NH2)
B6: (D-Tyr)-Aib-EGTFTSDYSI-αMeL-LD-Orn-K((2-[2-(2-Amino-ethoxy)-ethoxy]-acetyl)2-(γ-Glu)-CO-(CH2)16-CO2H)AQ-Aib-AFIE-αMeY-LIAGGPSSGAPPPS-NH2 (peptide)
peptide: B1 peptide with E21A
modifications: D-Tyr1; Aib2; αMeL13; Orn16; K17 conjugated to (2-[2-(2-Amino-ethoxy)-ethoxy]-acetyl)2-(γ-Glu)-CO-(CH2)16-CO2H; Aib20; αMeY25; C-terminal amide (NH2)

What follows are binders tested against human GLP-1 receptor (GLP-1R) (human, UniProt P43220 24-463) (assay: cell-based or functional assay).

Binder	hGLP1R cAMP EC50 ratio
B1	0.178
B2	0.142
B3	0.159
B4	0.114
B5	0.115
B6	0.199

What follows are binders tested against T1, human gastric inhibitory peptide … (assay: cell-based or functional assay).

Binder	hGIPR cAMP EC50 ratio
B1	1.13
B2	0.793
B3	0.734
B4	0.672
B5	0.374
B6	0.976

Molecular target: T2, human GLP-1 receptor (GLP-1R) (human), …
Test: cell-based or functional assay

Binder	hGLP1R cAMP EC50 ratio	hGLP1R cAMP Rel EC50 [nM]
Y[Aib]EGT[αMePhe(2-F)]TSDHSI[αMeL]LDEK([AEEA-AEEA-γGlu-C18 diacid])AQ[Aib]HFI[dE]YLIEGGPSSG-NH2 (not fully specified) [Example 179]	0.0169	2.7
Y[Aib]EGT[αMePhe(2-F)]TSDHSI[αMeL]LDEK([AEEA-AEEA-γGlu-C18 diacid])AQ[Aib]HFI[dE]YLIEGG-NH2 (not fully specified) [Example 180]	0.0212	2.16

Molecular target: T3, human gastric inhibitory peptide …
Test: cell-based or functional assay

Binder	hGIPR cAMP EC50 ratio	hGIPR cAMP Rel EC50 [nM]
Y[Aib]EGT[αMePhe(2-F)]TSDHSI[αMeL]LDEK([AEEA-AEEA-γGlu-C18 diacid])AQ[Aib]HFI[dE]YLIEGGPSSG-NH2 (not fully specified) [Example 179]	0.0575	1.83
Y[Aib]EGT[αMePhe(2-F)]TSDHSI[αMeL]LDEK([AEEA-AEEA-γGlu-C18 diacid])AQ[Aib]HFI[dE]YLIEGG-NH2 (not fully specified) [Example 180]	0.133	0.79
